Assay results from patent publication US20230265183A1 (MABWELL SHANGHAI BIOSCIENCE, published 2023).
Changes are numbered by the printed parent chain. One block for each binder: values may come before it.

Legend:
[1] = molecular target: T1, His-tagged human NECTIN4 (human, UniProt Q96NY8 32-349); assay: SPR (BIAcore S200), antigen on CAP chip, antibody as analyte, 1:1 fit
T1 construct: Antigen of the BIAcore assay; also called antigen; recombinant NECTIN4 protein; not shown: His tag
T1 sequence: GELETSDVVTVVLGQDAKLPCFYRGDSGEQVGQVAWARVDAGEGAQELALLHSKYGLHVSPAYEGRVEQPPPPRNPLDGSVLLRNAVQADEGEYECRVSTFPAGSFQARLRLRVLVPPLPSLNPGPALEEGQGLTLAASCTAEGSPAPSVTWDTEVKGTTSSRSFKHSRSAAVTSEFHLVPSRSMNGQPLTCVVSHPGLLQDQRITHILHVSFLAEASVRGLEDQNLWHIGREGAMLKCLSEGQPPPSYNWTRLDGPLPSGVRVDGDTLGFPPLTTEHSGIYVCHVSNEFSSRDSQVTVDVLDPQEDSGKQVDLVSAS
Protocol: Interactions between the antibodies and the antigen were measured using a BIAcore instrument S200 from GE. Referring to the instructions provided in Biotin Capture Kit from GE Healthcare, the analytical channel and the control sample channel on CAP sensor chip were first coupled with antigen i.e. His-tagged human NECTIN4, then samples containing antibodies (diluted 3-fold from an initial concentration of 20 nM respectively and solutions of each antibody of 8 concentrations were obtained totally, and the concentration 0.741 nM was set to be repeated) were allowed to flow through both the analytical channel and the sample channel, and the photoreactions upon antibody-antigen binding were measured. Association constant Kon and dissociation constant Koff and affinity constant KD of each antibody were finally obtained by instrument software fitting (1:1 binding mode) analysis.

[2] = molecular target: T2, human Nectin-4(C-6His), Novoprotein Cat# CJ19 (human, UniProt Q96NY8 32-349); assay: ELISA, plate coated with 1 µg/ml human Nectin-4(C-6His), HRP-labelled secondary antibody, absorbance at 450 nm
T2 construct: Bought protein; also called recombinant human Nectin4 protein; antigen Nectin-4
T2 sequence: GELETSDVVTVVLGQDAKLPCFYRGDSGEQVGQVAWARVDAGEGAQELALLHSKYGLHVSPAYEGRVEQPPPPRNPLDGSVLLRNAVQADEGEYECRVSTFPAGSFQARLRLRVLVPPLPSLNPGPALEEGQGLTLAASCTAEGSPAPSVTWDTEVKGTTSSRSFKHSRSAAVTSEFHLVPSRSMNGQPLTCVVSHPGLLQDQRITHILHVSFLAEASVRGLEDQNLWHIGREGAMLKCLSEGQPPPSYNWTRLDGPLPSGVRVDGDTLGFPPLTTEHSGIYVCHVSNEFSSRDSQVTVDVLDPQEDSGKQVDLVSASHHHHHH
Protocol: (§1) Plates were coated with 1 µg/ml of the antigens and incubated at 4° C. overnight; next, antibodies serially diluted were added into the plates. Finally, the HRP-labeled secondary antibody was added, and absorbance at 450 nm was detected.

[3] = molecular target: T3, human Nectin-4 (human, UniProt Q96NY8 32-510); assay: FACS on CHO-huNectin4 S8 cells
T3 construct: whole, on cells; Cell-surface target of the FACS, endocytosis and proliferation assays (CHO-huNectin4 S8 cells, BT474 cells); the assay field says which cells; also called huNectin4; PVRL4
T3 sequence (looked up): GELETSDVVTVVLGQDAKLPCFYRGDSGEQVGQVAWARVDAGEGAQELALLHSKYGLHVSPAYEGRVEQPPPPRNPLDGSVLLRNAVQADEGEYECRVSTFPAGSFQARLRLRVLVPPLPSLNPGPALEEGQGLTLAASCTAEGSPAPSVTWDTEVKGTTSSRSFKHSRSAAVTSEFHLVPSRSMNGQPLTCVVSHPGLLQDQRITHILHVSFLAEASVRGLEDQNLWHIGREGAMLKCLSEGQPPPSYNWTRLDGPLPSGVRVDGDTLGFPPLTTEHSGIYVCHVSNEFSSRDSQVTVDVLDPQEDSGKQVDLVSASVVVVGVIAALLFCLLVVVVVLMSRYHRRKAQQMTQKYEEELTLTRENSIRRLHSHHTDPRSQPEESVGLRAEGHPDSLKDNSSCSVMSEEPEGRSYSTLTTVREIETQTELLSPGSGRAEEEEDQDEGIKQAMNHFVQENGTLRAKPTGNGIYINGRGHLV

[4] = molecular target: T4, human Nectin-1(C-6His), Novoprotein Cat# C492 (human, UniProt Q15223 31-334, limits assumed); assay: ELISA, plate coated with 1 µg/ml human Nectin-1(C-6His), absorbance at 450 nm. The text names only a goat anti-rabbit HRP secondary antibody
T4 sequence: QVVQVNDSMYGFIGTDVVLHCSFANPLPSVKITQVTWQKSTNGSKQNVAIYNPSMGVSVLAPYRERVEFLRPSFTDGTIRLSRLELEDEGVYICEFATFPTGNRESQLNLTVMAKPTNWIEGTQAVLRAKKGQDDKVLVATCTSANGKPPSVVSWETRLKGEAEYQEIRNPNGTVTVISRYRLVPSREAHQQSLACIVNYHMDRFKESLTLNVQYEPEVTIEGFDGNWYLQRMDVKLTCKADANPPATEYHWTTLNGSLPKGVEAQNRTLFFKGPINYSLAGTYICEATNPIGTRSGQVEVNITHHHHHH
Protocol: as §1

[5] = molecular target: T5, human Nectin-2(C-6His), Novoprotein Cat# C440 (human, UniProt Q92692 32-360, limits assumed); assay: ELISA, plate coated with 1 µg/ml human Nectin-2(C-6His), absorbance at 450 nm. The text names only a goat anti-rabbit HRP secondary antibody
T5 sequence: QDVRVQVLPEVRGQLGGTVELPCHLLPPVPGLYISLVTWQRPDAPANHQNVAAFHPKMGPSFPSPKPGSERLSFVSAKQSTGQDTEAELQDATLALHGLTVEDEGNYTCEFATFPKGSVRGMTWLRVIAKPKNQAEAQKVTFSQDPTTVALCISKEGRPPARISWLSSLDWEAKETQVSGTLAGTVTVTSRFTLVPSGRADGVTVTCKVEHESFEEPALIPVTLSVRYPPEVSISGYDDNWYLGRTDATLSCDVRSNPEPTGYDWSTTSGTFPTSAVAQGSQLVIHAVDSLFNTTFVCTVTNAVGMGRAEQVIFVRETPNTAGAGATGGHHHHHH
Protocol: as §1

[6] = molecular target: T6, Cyno Nectin4 (Cyno, UniProt Q96NY8 32-510 (human entry)); assay: FACS on HEK-cynoNectin4 cells
T6 construct: Expressed on HEK293 cells (HEK-cynoNectin4)
T6 chain: T3 sequence (looked up) with V39A, I230V, A437T

[7] = molecular target: T7, murine Nectin4 (NP_082169) (murine, UniProt Q8R007 31-508); assay: FACS on HEK-muNectin4 cells
T7 construct: whole, on cells; also called muNectin4
T7 sequence (looked up): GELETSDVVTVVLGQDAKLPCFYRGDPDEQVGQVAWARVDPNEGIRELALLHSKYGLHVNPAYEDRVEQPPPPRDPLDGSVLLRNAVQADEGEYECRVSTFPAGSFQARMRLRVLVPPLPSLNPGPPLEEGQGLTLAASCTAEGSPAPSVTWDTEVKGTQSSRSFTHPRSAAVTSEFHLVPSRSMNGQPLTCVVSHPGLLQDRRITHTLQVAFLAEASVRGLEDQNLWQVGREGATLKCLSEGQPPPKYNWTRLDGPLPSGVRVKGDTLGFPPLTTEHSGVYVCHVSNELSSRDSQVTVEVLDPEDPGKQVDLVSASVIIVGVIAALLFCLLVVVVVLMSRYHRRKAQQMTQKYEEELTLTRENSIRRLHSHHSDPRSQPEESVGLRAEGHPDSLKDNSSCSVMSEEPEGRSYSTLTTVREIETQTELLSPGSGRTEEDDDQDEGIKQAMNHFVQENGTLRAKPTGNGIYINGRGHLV

[8] = molecular target: T3, human Nectin-4; assay: cell-based or functional assay
[9] = molecular target: T3, human Nectin-4; assay: cell-based or functional assay; remark: listed apart in the source
[10] = molecular target: T3, human Nectin-4; assay: FACS on BT474 cells
Protocol: (§2) The solutions of different concentrations were added to 384-well plates, 10 µl per well.
(§3) BT474 cells (breast cancer cells) expressing Nectin-4 on the cell surface were collected by centrifugation at 100 g at room temperature for 5 minutes, and then the cells were washed with PBS containing 0.5% BSA once and were centrifuged at 100 g at room temperature for 5 minutes. […] After incubation at 4° C. for 1 hour, fluorescently labeled goat anti-human IgG secondary antibody was added. After continued incubation at 4° C. for 1 hour, mean fluorescence readings of the cell populations were analyzed by a flow cytometer.

[11] = molecular target: T3, human Nectin-4; assay: FACS on BT474 cells; remark: listed apart in the source
Protocol: as §2, §3

Kd [1]: 1.8 nM
EC50 (read off the curve) [2]: ~0.1 µg/mL
EC50 [3]: 0.946 µg/mL
binding result [5]: no binding (tested: 10 µg/ml)
EC50 [6]: 2.45 to 4.06 µg/mL
EC50 [7]: 4.7 µg/mL
B1: 42D20 hz63 (antibody, V domains shown)
VH: QVQLQESGPGLVKPSETLSLTCTVSGFSLIDYGVSWIRQPPGKGLEWIGVIWGGGKIYYNSVLKSRVTISKDNSKSQVSLKLSSVTAADTAVYYCAKQGGLLFYAMDYWGQGTLVTVSS
VL: DIVMTQSPDSLAVSLGERATINCKSSQSLLNTYSQKNYLAWYQQKPGQSPKLLIYFASTRESGVPDRFSGSGSETDFTLTISSLQAEDLAVYFCQQHYNTPFTFGAGTKLELKR
notes: Humanized
binding result [4]: no binding (tested: about 2.5 µg/ml (last point))

Endocytosis efficiency (%) [8]: 69%
EC50 (ng/ml), inhibition of proliferation of BT474 cells [9]: 42.3 ng/mL
EC50 [10]: 25.4 µg/mL
B2: murine antibody 5M21 (antibody, V domains shown)
VH: QVQLQQSGPELVKPGASVRITCKASGYTFTTYYIHWVKQRPGQGLEWIGWIYPGNVNTKYNEKFKGKATLTADKSSSTAYMQLSSLTSEDSAVYFCARGLYYFDYWGQGTTLTVSS
VL: SIVMTQTPKFLLVSAGDRLTITCKASQSVSNDVAWYQQKPGQSPKLLIYYASNRYTGVPDRFTGSGYGTDFTFTISTVQAEDLAVYFCQQDYSSPYTFGGGTKLEIK
notes: Murine monoclonal antibody from hybridoma; also called mIgG 5M21
Percentage of cell killing at the highest concentration [9]: 33.5%

EC50 [11]: 83.8 µg/mL
B3: murine antibody 20M12 (antibody, V domains shown)
VH: B2 VH with T21S, T31S, V56A, T58N, K63N, G99S, L100V
VL: B2 VL with I2V, L19V, Y55N, T74N
notes: Murine monoclonal antibody from hybridoma; also called mIgG 20M12

Endocytosis efficiency (%) [8]: 56%
EC50 (ng/ml), inhibition of proliferation of BT474 cells [9]: 16.9 ng/mL
EC50 [10]: 75 µg/mL
B4: murine antibody 30J3 (antibody, V domains shown)
VH: EVQLQQSGPDLVKPGASVKISCKASGYSFTDYYMHWVKQSRGKGLEWIGRVNPNNGNTLYNQKFRGKAILTVDKSSSTAYMELRSLTSDDSAVYYCAREDRYAFAYWGQGTLVTVSA
VL: DIVLTQSPASLAVSLGQRATISCRASQSVSTSSYTYMHWYQQKPGQPPKLLIKYASNLESGVPARFIGSGSGTDFTLNIHPVEEEDTATYYCQHTWEIPYTFGGGTKLEIK
notes: Murine monoclonal antibody from hybridoma; also called mIgG 30J3
Percentage of cell killing at the highest concentration [9]: 52.8%
